Where no end group is shown, it is not given here. The star is where a group is joined. Prodan = Prodan fluorogenic core conjugated to Cys (C*)

The target of experiment [1] is glutathione S-transferase (GST). Put plainly: other fluorescence titration.
Experiment [2] shares this target. Put plainly: ITC. In general terms: ITC needs no label: the signal is the heat of the interaction.

As to NTVSC(Prodan)HGF [Prodan-evolver NTVSC*HGF (1)], the Kd (as a rule, the concentration at which binding is half-saturated) in experiment [1] came out at 5.2 µM; in experiment [2] it was 2.4 µM.

For the origin of these results see PMC5077683.
